Data as given in publication PMC5792643.

Key:
[1] = target: G-actin (monomeric actin from chicken muscle) (chicken) (UniProt P68139); assay: ITC
[2] = target: G-actin (monomeric actin) (chicken) (UniProt P68139); assay: ITC

Substance: Tarp_(726–825) (translocated actin recruiting phosphoprotein, G-actin binding region) (domain or fragment)
- stoichiometry N [1]: 1

Substance: Tarp_(726–825) (translocated actin recruiting phosphoprotein, residues 726–825, containing the G-actin binding domain) (from UniProt Q6GX35 726-825) (domain or fragment)
- Kd [2]: 102 nM
- stoichiometry N [2]: 1
